These results are taken from patent US20170281809A1 (Novo Nordisk, published 2017).

Several values for one entry are separate records, joined by “and”; a condition that tells them apart may be missing. Equal values may be shown once.

The target in test [1] is single-chain NKG2A-CD94-mFc construct (human) (UniProt Q13241). Description: SPR (Biacore T100); sc-NKG2A-CD94-mFc amine-coupled to CM5 chip, antibody 0.157-2.5 nM as analyte. Background: SPR reads the build-up and loss of mass on a sensor chip optically.
The target of test [2] is T1, CD94/NKG2A on cells (Ba/F3-CD94/NKG2A; NKL cells) (human, UniProt Q13241 1-179).
T1 construct: whole, on cells
The test is described as follows: flow cytometry on Ba/F3-CD94/NKG2A cells, APC-conjugated secondary antibody. How it is done:
The strength and specificity of humZ270 binding to CD94/NKG2A was tested in flow-cytometry, by analyzing the binding of in HEK293 cells produced wild-type Z270 (recZ270), chimeric Z270 with human IgG4 (chimZ270) or humanized Z270 (humZ270VL1/VH1) to Ba/F3 cells stably over-expressing either CD94/NKG2A or CD94/NKG2C. For this purpose, Ba/F3-CD94/NKG2A and -C cells were incubated with various concentrations of Z270 variants in tissue-culture medium containing 2% FCS, for at least 30 minutes on ice. Subsequently cells were washed, and the cells incubated in similar medium with APC conjugated secondary Ab's, again for at least 30 minutes on ice. After two times washing with ice-cold PBS, the binding of mAb's to cells was visualized using a BD Biosciences FACSarray.
For orientation: A flow cytometer gives signals particle by particle.

Test [3] has as its target single-chain NKG2A-CD94-mFc construct (human) (UniProt Q13241). Description: SPR (Biacore T100); sc-NKG2A-CD94-mFc on CM5 chip, mutant at 0.75 nM or 1.5 nM.
In test [4] the target is T1, CD94/NKG2A on cells (Ba/F3-CD94/NKG2A; …). Description: flow cytometry on Ba/F3-CD94/NKG2A cells, APC-conjugated secondary antibody specific for human antibodies. As to the method: The specificity and efficacy of humZ270VL1/VH1, and various humZ270VL1/VH1 variants with back-mutations in the variable light (VL) or variable heavy (VH) regions were tested for binding to CD94/NKG2A in flow-cytometry. For this, Ba/F3-CD94/NKG2A cells were incubated with humZ270-L46F (VL), humZ270-148V (VL), humZ270-L46F/148V (VL), humZ270-V5Q (VH), humZ270-M69L (VH), humZ270-T71V (VH), humZ270-T73K (VH), humZ270-T75S (VH), humZ270-V5Q/M69L/T71V/T73K/T75S (VH), humZ270-M69L/T71V/T73K/T75S (VH) or two different batches of humZ270VL1/VH1 without back-mutations (“DK” and “CHN”). For this purpose, Ba/F3-CD94/NKG2A or -C cells were incubated with various concentrations of the humZ270 variants in tissue-culture medium containing 2% FCS, for at least 30 minutes on ice. The cells were then washed, and incubated in similar medium with APC conjugated secondary antibodies specific for human antibodies, again for at least 30 minutes on ice. After two times washing with ice-cold PBS, the binding of secondary antibodies to cells was visualized using a BD Biosciences FACSarray.

Test [5] shares this target. Description: flow cytometry on Ba/F3-CD94/NKG2A cells, no HLA-E tetramer pre-incubation, APC-conjugated secondary antibody. As to the method:
To test whether humZ270VL1/VH1 prevents ligand (i.e. HLA-E) binding to CD94/NKG2A, we analyzed whether humZ270 could prevent the binding of HLA-E tetramers to CD94/NKG2A over-expressing Ba/F3 cells (Ba/F3-CD94/NKG2A). For this, Ba/F3-CD94/NKG2A were incubated with 1) various concentrations of humZ270 or 2) first incubated with a saturing concentration of HLA-E tetramers (4.7 μg/ml) and then incubated with various concentrations of humZ270. All incubations were performed in tissue-culture medium containing 2% FCS, on ice. Subsequently, cells were incubated with APC-conjugated secondary antibodies specific for mouse Ab's, and analyzed by flow cytometry using a BD Biosciences FACSarray.

T1 sequence (chain, as listed by the source limits assumed, chain 1 of 2): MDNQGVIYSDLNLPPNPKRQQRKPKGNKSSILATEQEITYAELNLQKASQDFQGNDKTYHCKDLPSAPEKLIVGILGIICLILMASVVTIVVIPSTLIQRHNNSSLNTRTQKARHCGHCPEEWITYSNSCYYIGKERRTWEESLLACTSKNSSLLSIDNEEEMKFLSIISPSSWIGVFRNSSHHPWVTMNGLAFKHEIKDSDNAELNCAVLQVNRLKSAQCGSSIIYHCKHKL
T1 sequence (Q13241 whole entry, chain 2 of 2): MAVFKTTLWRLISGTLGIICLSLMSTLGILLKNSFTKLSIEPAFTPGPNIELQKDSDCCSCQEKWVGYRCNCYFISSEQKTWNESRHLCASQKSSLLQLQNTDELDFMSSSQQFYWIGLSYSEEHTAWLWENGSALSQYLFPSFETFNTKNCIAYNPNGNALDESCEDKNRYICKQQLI

B1: chimeric Z270 antibody (antibody, human IgG4, V domains shown)
VH: QVQLQQPGAELVRPGASVKLSCKASGYTFTSYWMNWVKQRPEQGLQWIGRIDPYDSETHYSQKFKDKAILTVDKSSSTAYMRLSSLTSEDSAVYYCARGGYDFDVGTLYWFFDVWGAGTTVTVS
VL: DIQMTQSPASLSASVGETVTITCRASENIYSYLAWYQQKQGKSPQFLVYNAKTLAEGVPSRFSGSGSGTQFSLKINSLQPEDFGSYYCQHHYGTPRTFGGGTKLEIK
For the molecule B1, in test [1], the Kd (usually the equilibrium constant for the complex coming apart) stood at 0.0498 nM; the koff (as a rule, a measure of how fast the partners let go of each other) was 0.000397 s⁻¹; the kon – broadly, the rate constant with which the complex forms – amounted to 7.97e+06 M⁻¹ s⁻¹.

B2: wild-type Z270 produced in HEK293 cells (recZ270) (antibody, mouse IgG1, V domains shown)
VH: QVQLQQPGAELVRPGASVKLSCKASGYTFTSYWMNWVKQRPEQGLQWIGRIDPYDSETHYSQKFKDKAILTVDKSSSTAYMRLSSLTSEDSAVYYCARGGYDFDVGTLYWFFDVWGAGTTVTVS
VL: DIQMTQSPASLSASVGETVTITCRASENIYSYLAWYQQKQGKSPQFLVYNAKTLAEGVPSRFSGSGSGTQFSLKINSLQPEDFGSYYCQHHYGTPRTFGGGTKLEIK
notes: also called recombinant Z270
Regarding B2, the EC50 (read off the curve) (commonly the midpoint of the concentration-response curve) in test [2] is approximately 1 ng/mL.

B3: Z270VH alanine mutant R94A (antibody, name in Kabat numbering, V domains shown)
VH: QVQLQQPGAELVRPGASVKLSCKASGYTFTSYWMNWVKQRPEQGLQWIGRIDPYDSETHYSQKFKDKAILTVDKSSSTAYMRLSSLTSEDSAVYYCAAGGYDFDVGTLYWFFDVWGAGTTVTVS
VL: DIQMTQSPASLSASVGETVTITCRASENIYSYLAWYQQKQGKSPQFLVYNAKTLAEGVPSRFSGSGSGTQFSLKINSLQPEDFGSYYCQHHYGTPRTFGGGTKLEIK
Take B3: in test [3], the relative binding (binding level in RU divided by that of chimZ270) stood at 20%.

B4: humZ270VL1/VH1 (antibody, human IgG4, V domains shown)
VH: QVQLVQSGAEVKKPGASVKVSCKASGYTFTSYWMNWVRQAPGQGLEWMGRIDPYDSETHYAQKLQGRVTMTTDTSTSTAYMELRSLRSDDTAVYYCARGGYDFDVGTLYWFFDVWGQGTTVTVS
VL: DIQMTQSPSSLSASVGDRVTITCRASENIYSYLAWYQQKPGKAPKLLIYNAKTLAEGVPSRFSGSGSGTDFTLTISSLQPEDFATYYCQHHYGTPRTFGGGTKVEIK
notes: No back-mutations; also called hZ270VL1/VH1; huZ270 with a humZ270VH1 heavy chain
In test [1], B4 showed a Kd of 0.0665 nM, a koff of 0.000498 s⁻¹ and a kon of 7.49e+06 M⁻¹ s⁻¹. For the same molecule, in test [4], the “EC50 (read off the curve)” value was ~10 ng/mL and ~8 ng/mL. Besides, the “EC50 (read off the curve)” value in test [5] is approximately 30 ng/mL.
